Measurements published in patent US20250262210A1 (TRUSTEES OF COLUMBIA UNIVERSITY IN THE CITY OF NEW YORK, published 2025).

Legend:
Experiment in all cases: IP/MS, LZTR1 R810W-FLAG, U87
VPS13A = VPS13A (human, UniProt Q96RL7 1-3174, limits assumed)
In short: (§1)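 Extracted peptides in 3% acetonitrile/0.1% formic acid ran on a 50 cm C18 column into an Orbitrap Fusion, with MaxQuant identification and spectral counting.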

INTS1 = INTS1 (human, UniProt Q8N201 1-2190)
In short: as §1

MED24 = target: T1, MED24 (human, UniProt O75448 1-989, limits assumed)
T1 sequence (looked up): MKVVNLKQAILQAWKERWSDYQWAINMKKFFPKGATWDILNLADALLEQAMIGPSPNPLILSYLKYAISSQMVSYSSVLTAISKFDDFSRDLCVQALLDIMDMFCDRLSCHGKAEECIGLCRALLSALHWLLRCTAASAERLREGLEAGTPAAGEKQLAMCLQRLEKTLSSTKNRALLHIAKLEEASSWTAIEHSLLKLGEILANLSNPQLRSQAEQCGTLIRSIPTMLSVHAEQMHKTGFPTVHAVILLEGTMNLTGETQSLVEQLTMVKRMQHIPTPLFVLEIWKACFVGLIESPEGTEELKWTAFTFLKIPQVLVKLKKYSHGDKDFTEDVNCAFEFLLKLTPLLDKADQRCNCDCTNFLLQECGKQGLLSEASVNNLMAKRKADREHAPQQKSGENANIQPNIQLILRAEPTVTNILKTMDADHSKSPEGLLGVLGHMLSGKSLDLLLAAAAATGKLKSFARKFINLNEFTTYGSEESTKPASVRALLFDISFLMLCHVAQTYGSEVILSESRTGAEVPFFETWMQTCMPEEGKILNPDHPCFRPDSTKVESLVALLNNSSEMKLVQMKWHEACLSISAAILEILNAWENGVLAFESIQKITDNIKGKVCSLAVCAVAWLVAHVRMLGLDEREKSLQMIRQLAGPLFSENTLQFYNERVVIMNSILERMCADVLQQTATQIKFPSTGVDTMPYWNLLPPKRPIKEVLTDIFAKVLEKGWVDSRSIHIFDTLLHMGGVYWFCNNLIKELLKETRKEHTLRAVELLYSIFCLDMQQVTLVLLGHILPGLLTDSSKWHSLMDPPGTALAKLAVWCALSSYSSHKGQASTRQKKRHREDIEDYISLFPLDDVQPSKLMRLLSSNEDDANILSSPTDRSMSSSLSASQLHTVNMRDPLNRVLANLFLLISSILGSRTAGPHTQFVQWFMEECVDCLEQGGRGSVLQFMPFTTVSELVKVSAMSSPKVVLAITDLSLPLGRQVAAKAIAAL
In short: as §1

KIAA1468 = target: T2, KIAA1468 (human, UniProt Q9P260 2-1216, limits assumed)
T2 sequence (looked up): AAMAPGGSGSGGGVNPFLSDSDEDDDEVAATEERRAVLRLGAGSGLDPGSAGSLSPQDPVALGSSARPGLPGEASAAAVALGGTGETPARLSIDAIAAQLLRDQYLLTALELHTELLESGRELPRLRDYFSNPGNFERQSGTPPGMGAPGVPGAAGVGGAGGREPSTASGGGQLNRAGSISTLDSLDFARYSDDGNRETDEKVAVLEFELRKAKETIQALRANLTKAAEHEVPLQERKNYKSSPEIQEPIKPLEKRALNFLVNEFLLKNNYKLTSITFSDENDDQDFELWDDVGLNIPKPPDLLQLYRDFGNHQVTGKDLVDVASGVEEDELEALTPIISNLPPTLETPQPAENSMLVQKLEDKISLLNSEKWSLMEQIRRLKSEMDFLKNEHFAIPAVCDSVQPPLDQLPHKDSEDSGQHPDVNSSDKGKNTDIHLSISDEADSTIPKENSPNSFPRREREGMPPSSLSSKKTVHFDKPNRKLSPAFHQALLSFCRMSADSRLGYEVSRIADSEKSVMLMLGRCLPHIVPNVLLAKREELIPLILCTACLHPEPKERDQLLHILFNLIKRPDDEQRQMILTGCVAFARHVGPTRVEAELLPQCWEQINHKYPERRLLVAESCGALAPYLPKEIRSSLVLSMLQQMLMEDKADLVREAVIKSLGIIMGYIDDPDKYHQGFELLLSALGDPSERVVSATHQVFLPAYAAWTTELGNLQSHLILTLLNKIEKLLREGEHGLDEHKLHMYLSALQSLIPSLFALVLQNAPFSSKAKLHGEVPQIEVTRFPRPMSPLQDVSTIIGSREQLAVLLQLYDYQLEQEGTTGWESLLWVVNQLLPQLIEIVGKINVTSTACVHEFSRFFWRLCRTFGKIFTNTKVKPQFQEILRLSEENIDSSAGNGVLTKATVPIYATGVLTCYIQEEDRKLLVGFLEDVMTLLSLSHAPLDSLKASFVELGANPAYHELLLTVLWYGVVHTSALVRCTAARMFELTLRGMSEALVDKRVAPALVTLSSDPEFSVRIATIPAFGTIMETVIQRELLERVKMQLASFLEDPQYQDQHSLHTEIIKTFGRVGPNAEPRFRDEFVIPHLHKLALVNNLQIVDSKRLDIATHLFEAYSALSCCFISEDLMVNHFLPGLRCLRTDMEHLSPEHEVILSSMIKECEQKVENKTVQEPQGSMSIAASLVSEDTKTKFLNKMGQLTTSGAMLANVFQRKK
In short: as §1

Measured: binding result

INTS1, sequence (Q8N201 whole entry): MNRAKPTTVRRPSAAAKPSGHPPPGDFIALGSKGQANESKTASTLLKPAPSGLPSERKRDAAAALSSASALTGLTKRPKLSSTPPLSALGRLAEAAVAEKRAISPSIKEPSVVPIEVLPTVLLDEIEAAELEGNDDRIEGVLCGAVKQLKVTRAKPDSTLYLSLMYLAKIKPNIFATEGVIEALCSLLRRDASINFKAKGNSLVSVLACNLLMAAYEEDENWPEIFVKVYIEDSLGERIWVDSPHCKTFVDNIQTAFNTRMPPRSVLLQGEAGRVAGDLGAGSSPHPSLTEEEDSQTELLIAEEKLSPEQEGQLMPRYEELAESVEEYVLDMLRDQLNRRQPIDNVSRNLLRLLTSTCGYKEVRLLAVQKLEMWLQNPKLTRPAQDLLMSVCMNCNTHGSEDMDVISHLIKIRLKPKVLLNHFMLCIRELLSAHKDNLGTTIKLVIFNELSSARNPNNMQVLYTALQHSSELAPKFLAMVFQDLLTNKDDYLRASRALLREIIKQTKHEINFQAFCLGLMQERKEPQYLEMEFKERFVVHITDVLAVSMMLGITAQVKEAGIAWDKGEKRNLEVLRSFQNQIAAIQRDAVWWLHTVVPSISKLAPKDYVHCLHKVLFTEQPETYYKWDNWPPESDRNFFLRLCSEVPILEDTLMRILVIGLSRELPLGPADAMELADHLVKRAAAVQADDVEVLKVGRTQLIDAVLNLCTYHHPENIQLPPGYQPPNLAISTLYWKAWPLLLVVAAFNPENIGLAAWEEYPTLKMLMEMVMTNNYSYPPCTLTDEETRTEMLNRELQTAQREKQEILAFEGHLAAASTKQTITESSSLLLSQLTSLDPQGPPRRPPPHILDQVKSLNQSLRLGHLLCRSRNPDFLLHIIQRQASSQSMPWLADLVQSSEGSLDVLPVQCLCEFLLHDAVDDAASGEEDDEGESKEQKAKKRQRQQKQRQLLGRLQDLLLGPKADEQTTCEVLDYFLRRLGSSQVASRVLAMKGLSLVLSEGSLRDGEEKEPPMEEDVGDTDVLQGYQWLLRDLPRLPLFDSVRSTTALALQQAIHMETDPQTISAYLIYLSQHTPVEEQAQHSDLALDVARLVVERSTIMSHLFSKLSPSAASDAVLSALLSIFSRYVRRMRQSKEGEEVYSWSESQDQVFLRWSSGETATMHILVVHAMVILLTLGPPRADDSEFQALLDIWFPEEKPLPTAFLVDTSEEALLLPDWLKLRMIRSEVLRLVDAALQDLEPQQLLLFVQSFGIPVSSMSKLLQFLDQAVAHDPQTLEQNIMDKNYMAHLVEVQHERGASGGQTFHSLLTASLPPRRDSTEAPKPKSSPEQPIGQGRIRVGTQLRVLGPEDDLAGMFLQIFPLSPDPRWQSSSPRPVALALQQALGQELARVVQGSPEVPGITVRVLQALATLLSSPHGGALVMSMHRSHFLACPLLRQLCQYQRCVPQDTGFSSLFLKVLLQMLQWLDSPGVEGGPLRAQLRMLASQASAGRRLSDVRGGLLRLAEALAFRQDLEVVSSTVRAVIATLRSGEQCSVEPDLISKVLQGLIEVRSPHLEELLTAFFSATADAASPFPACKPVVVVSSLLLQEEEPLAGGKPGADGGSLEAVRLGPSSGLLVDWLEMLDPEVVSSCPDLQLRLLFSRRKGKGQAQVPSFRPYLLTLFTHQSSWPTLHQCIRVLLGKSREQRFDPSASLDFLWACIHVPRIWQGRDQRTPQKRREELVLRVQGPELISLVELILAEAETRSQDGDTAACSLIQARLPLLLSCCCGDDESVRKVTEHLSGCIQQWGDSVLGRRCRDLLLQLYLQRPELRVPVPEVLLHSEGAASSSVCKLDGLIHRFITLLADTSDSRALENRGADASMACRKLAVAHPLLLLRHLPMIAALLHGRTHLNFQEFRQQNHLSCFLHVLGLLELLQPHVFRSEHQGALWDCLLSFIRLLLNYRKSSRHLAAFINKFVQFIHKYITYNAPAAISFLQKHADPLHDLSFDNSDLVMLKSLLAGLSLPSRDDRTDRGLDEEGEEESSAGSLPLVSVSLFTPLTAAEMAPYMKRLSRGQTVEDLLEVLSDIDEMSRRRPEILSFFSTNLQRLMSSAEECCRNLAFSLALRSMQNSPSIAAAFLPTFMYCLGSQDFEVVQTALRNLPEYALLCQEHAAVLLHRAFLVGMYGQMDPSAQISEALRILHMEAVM

B1: LZTR1 R810W-FLAG (other, human, UniProt Q8N653 1-840, looked up)
chain: MAGPGSTGGQIGAAALAGGARSKVAPSVDFDHSCSDSVEYLTLNFGPFETVHRWRRLPPCDEFVGARRSKHTVVAYKDAIYVFGGDNGKTMLNDLLRFDVKDCSWCRAFTTGTPPAPRYHHSAVVYGSSMFVFGGYTGDIYSNSNLKNKNDLFEYKFATGQWTEWKIEGRLPVARSAHGATVYSDKLWIFAGYDGNARLNDMWTIGLQDRELTCWEEVAQSGEIPPSCCNFPVAVCRDKMFVFSGQSGAKITNNLFQFEFKDKTWTRIPTEHLLRGSPPPPQRRYGHTMVAFDRHLYVFGGAADNTLPNELHCYDVDFQTWEVVQPSSDSEVGGAEVPERACASEEVPTLTYEERVGFKKSRDVFGLDFGTTSAKQPTQPASELPSGRLFHAAAVISDAMYIFGGTVDNNIRSGEMYRFQFSCYPKCTLHEDYGRLWESRQFCDVEFVLGEKEECVQGHVAIVTARSRWLRRKITQARERLAQKLEQEAAPVPREAPGVAAGGARPPLLHVAIREAEARPFEVLMQFLYTDKIKYPRKGHVEDVLLIMDVYKLALSFQLCRLEQLCRQYIEASVDLQNVLVVCESAARLQLSQLKEHCLNFVVKESHFNQVIMMKEFERLSSPLIVEIVRRKQQPPPRTPLDQPVDIGTSLIQDMKAYLEGAGAEFCDITLLLDGHPRPAHKAILAARSSYFEAMFRSFMPEDGQVNISIGEMVPSRQAFESMLRYIYYGEVNMPPEDSLYLFAAPYYYGFYNNRLQAYCKQNLEMNVTVQNVLQILEAADKTQALDMKRHCLHIIVHQFTKVSKLPTLWSLSQQLLLDIIDSLASHISDKQCAELGADI
notes: Stably expressed in U87 cells by lentivirus; also called LZTR1-FLAG-R810W; LZTR1 RW; not shown: FLAG tag
binds: all assays above
